Values quoted from earlier work, collected in patent US10076577B2, “Compositions and methods for treating endocrine, gastrointestinal or autoimmune disorders” (priority 2010, dated 2018).

Conditions: in vivo

## Glucagon-like peptide-1 [GLP-1]
  half-life in the blood: a few minutes
